Tests used:
[1] = molecular target: Interferon alpha-2a (human) (UniProt P01563); assay: AUC; sedimentation velocity, 50000 rpm, histidine pH 5, 0 or 140 mM NaCl, 0.8, 0.4 and 0.2 mg/mL (A280 = 1, 0.5, 0.25); monomer with a dimer in fast equilibrium with higher oligomers
[2] = molecular target: Interferon alpha-2a (human) (UniProt P01563); assay: AUC; sedimentation velocity, 50000 rpm, histidine pH 7.5, 0 or 140 mM NaCl, 0.8, 0.4 and 0.2 mg/mL (A280 = 1, 0.5, 0.25); dimers and larger oligomers in concentration-dependent equilibrium

Interferon alpha-2a (from UniProt P01563 24-188) (natural protein)
stoichiometry N [1]: > 2 >=
stoichiometry N [2]: 2

Source: paper PMC8713289
